The values that follow come from the DeepSol protein solubility set.

The data set is described as follows: soluble on expression in E. coli; label from the status in PepcDB or PDB records.
As to “MGSDKIHHHHHHEEEEQKPAYGKIDVAVSVTLPQPESVNTLTRAGGPYTDTDIKNADLLIFDKDAKFMERVKVENDRLVITGTGINFTVRLDATSERRIIHLVANGRSADGTSDRLNFGDITPGMTENAAISSLQTASLEHVDEGESTLLNHVMPLVMWGRFALNGINIVTKAEGVKLLRSTACIQVKKGNGGGNTGLDDFVIEGITVHQGACHGFLAPTDCTGEVNTPVVTNPVTGGIYLDYRKGWVNGAEPSLYIYERNCSASDYMGVVIAARYKGKKGYYKVVMNGNDGSPLNIVRNHRYIVTVVGVNGPGYESPDIAVASAPSNALKVELTDEDTDLPCIVADGQYRMASSNNVFSLYGKTGVTTSATGVDICTVYSSRGIQPVLTLPDDCNWLTNLSAQALGSNKYKITGDFTSAANDAVATTLTMTCDNLSQPVRVSWNPIISDQKDTDSFVLDLVGSTDRNWTVRVLNPTSPGWLFLHPSAASPGALPGDGMVSELSSKYSSHAYLHVAFGASRRGTVQMTSASSGETVARKIVVIQ”, the “soluble on expression in E. coli” value is recorded as “not soluble”.

“MGSDKIHHHHHHMKFCIIGYPVRHSISPRLYNEYFKRAGMNHSYGMEEIPPESFDTEIRRILEEYDGFNATIPHKERVMRYVEPSEDAQRIKAVNCVFRGKGYNTDWVGVVKSLEGVEVKEPVVVVGAGGAARAVIYALLQMGVKDIWVVNRTIERAKALDFPVKIFSLDQLDEVVKKAKSLFNTTSVGMKGEELPVSDDSLKNLSLVYDVIYFDTPLVVKARKLGVKHIIKGNLMFYYQAMENLKIWGIYDEEVFKEVFGEVLK”: the “soluble on expression in E. coli” value was “not soluble”.

As for “GPMRRERGRQGDSSSCERQVDRVNLKPCEQHIMQRIMGEQEQYDSYDIRSTRSSDQQQRCCDELNEMENTQGCMCEALQQIMENQCDRLQDRQMVQQFKRELMSLPQQCNFRAPQRCDLDVSGGRCS”, the “soluble on expression in E. coli” value is “soluble”.

For the sequence “MGSDKIHHHHHHQTQVIAHRGFWKTEGSAQNSIAALLKADSIGCYGSEFDVWLAADDQLVVNHDPTFKGKRMENSPSTALTAIKLDNGESLPTLAKYLKAAQPLHTRLILELKAHSTPLRETKAIEKIVALVKDMGLEERMEYITFSLHATKEFIRLAPEGTPVYYLDGNLSPKELKELGCAGPDYHYTVFRKHPEWIQECHDLGMKVNAWTVNKTDDMKWLIDRKVDFITTNEPVQLKNLLKK”, the “soluble on expression in E. coli” value is reported as “not soluble”.

For “MKDFLRLELPVLPLRNTVVLPHTTTGVDVGRLKSKRAVEEALSADRLLFLVTQKDPEVDDPAPEDLYAVGTLAVVKQAMRLPDGTLQVMVEARSRARLLSYVAAPYLRAVGEAIPEPPLKDPELARVLVNEVQEAFERYLQNHKTLRLDRYQQEAVKSTRDPAILADLVAHHATWTLEEKQTILETPEVEERLKRVLALLLRDLERFELDKKIAARVKEQMDQNQREYYLREQMKAIQKELGGGEDFLTEIEELRERIEKKGMPEPVKEKALKELKRLERMQPGSPEATVSRTYLDWLLEVPWTEADPEVLDISVTKRVLDEDHYGLKEVKERILEYLAVRQLTQGKEVKGHAPILCFVGPPGVGKTSLGKSIARSMNRRFHRISLGGVRDEAEIRGHRRTYIGALPGKIIQGMKQVGVVNPVFLLDEIDKLSSDWRGDPAAALLEVLDPEQNHTFTDHYLDVPYDLSKVFFITTANTLSTIPRPLLDRMEVIEIPGYTLHEKRAIARYFRWPFQVKEAGLEGRLEITDRAIERIVQEYTREAGVRNLDRELSKVARKAAKDYLEKPWEGVRVVDAEDLEAYLGVPKYRPDRAEKEPQVGAAQGLAWTPYGGTLLTIEAVAVPGTGKVNLTGNLGEVMKESDHAVLTYLRVHREEWGLPEGFHKDYDLHIHVPEGATPKDGPSAGITIATALASALTGRPVRMDIAMTGEITLRGRVLPIGGVKEKLLAAHQAGIHRVILPKENAAELKEVPEEILKDLEIHFVEEVGEVLKLLLLPPPPPPAVQPDRPQPGVGA”, the “soluble on expression in E. coli” value was “soluble”.

On to “MKIAHISDLHVKCEWYEDRLGNNLVKYLNAQKPDLLIITGDLTDYGYYAEYKRAYSFLELIEVEKRVVVPGNHDARNEGYELFEEFFGTRMPYYEDEYMVIIGMDSSLPDREEGHIGRKGYKFLRETLKDKGDKLKIVALHHHVVPIPATGSDLAILTDAGNLMKVVDELGVELVLTGHKHKAWVWKLNETYYVTAGTATTRRLKAKDYPSFYMLYLEDEKNIRMEKVNTETLKVEEVYTLNFEEGKER”, for which the “soluble on expression in E. coli” value is recorded as “not soluble”.

With “MATLEQKLTVLISDTIESMGYELVGVECQHAGRFLTVRLYIDKEGGVTIDDCSDVSRQVSAIFDVEDPISDKYNLEVSSPGLDRPLFTLAHYARFVGREMVIHLRIPMFDRRKWQGKLTKVDGDLISLEIENNGEHQFIFSNIQKANLIPVFDF”, the “soluble on expression in E. coli” value was “not soluble”.

Regarding “MGSDKIHHHHHHMTVELKNILDLEKWEKLQESLALSTRLAIILVDYKGRPVTKHSQVQPFCQLVRHSPELSKLCEKCDARGGLEAVRTGQPFIYRCHFNIVDMAIPIIVDDQYVGAIMAGEVLLEDHQEELEQVLTMNDAFIQEFLVTHQELYQQYPVLELADLEKSATLIADLSQYIISEAIKKDYLINTYKQSLQISSRKEELEPLNMIQKDIQQTLLTAQLTPSSAYQTKNKQLQPVLDALWENKSLRLNLQELADLVHLTPTYLSRLLKEEFGIPFSQFYRQLKITWAKQLLLETDKTIAQISEDLGFVEDSYFVRIFKQETGETPLKYRKRKNRA”, the “soluble on expression in E. coli” value is recorded as “not soluble”.

As to “SRNICYDAFVSYSERDAYWVENLMVQELENFNPPFKLCLHKRDFIHGKWIIDNIIDSIEKSHKTVFVLSENFVKSEWCKYELDFSHFRLFDENNDAAILILLEPIEKKAIPQRFCKLRKIMNTKTYLEWPMDEAQREGFWVNLRAAIKS”, the “soluble on expression in E. coli” value is listed as “soluble”.

Consider “MGSDKIHHHHHHMRQFAKPTIVVSKCLEFDACRYNGEMIPDVTIRNLQPFVTFIPVCPEVEIGLGTPRETIRIVEEKGVNKLMQPSTREDLTGKMEQFSNKFLQTISDVDGFILKNRSPSCGTRDVKIYSGFEKAPAKGKGPGLFGGAVIKNFSHLPIEEEGRLSNFIIREHFLTRLFTIAYYKMMKRNKNMKDLVSFQSDNKYLFMAYNQVKQKELGRIIANHKNEKIEVVFENYEKTLYELFMRTPRYTSNVNVCEHIFGYFKTKLKKQEKDHFLDLIQKYKEKKIPLSSLLAILKSWALRFDEKYLLRQTYFEPYPEALVEISDSGKGRDY”, for which the “soluble on expression in E. coli” value is reported as “not soluble”.

Consider “ASGRRAPRTGLLELRCGAGSGAGGERWQRVLLSLAEDALTVSPADGEPGPEPEPAQLNGAAEPGAAPPQLPEALLLQRRRVTVRKADAGGLGISIKGGRENKMPILISKIFKGLAADQTEALFVGDAILSVNGEDLSSATHDEAVQALKKTGKEVVLEVKYMKEVSPYFKNSAGGTSVGWDSPPASPLQRQPSSPGPQPRNLSEAKHVSLKMAYVSRRCTPTDPEPRYLEICAADGQDAVFLRAKDEASARSWAGAIQAQIGT”, for which the “soluble on expression in E. coli” value was “soluble”.

In the case of “GSHMGGGGGIVLFVDFDYFYAQVEEVLNPSLKGKPVVVCVFSGRFEDSGAVATANYEARKFGVKAGIPIVEAKKILPNAVYLPMRKEVYQQVSSRIMNLLREYSEKIEIASIDEAYLDISDKVRDYREAYNLGLEIKNKILEKEKITVTVGISKNKVFAKIAADMAKPNGIKVIDDEEVKRLIRELDIADVPGIGNITAEKLKKLGINKLVDTLSIEFDKLKGMIGEAKAKYLISLARDEYNEPIRTRVRKSIGRIVTMKRNSRNLEEIKPYLFRAIEESYYKLDKRIPKAIHVVAVTEDLDIVSRGRTFPHGISKETAYSESVKLLQKILEEDERKIRRIGVRFSKFIEAIGLDKFFDT”, the “soluble on expression in E. coli” value is “soluble”.

Take “KMETAFDIERTMGRRIEYVSNILAVSESELGSLYSYDIMIDLGEEGKAKTPEALRALDSIARHAEAYSLTKRTTSILNILKDLNQTLHDGDQAYYSIPGDAEEVAQQLLLYENAGGSEAESWIDYEYRRLRLKVEMTSYNSGEAEWELQDITDYARKLFPEAEITPVGSLPQFTTMMQYVVRGQ”: the “soluble on expression in E. coli” value is on record as “not soluble”.

For the sequence “MSLDKVTLLLNWYVYGEHAPFFYGKAKGLYAAEGIDLDIQEGRGSAVTIQAVAAGTVQFGYADVPTMIRAAAKGAPVVAVGVALQKSPMSVMGFSDKNIRKPEDIKGKIVATTPGDSMSQIWPLFLKQAGLRASDFQVVSGDAQTKLNAVANGRADLLLGYVMDQSMKLKDATGKDVRPIMFADYGIHMVSSGIITNKDLLKSNPDLVRRFMKATTAAFIGAEKDPGAAVDALLADLPKAGKRETLLEGFALTTPLYHTDETKGRPPFQVTDADMTSTVDLLIEYGGLEASAKDNTKSFYTRDYLPAAGNEGHHHHHH”, the “soluble on expression in E. coli” value is recorded as “soluble”.
